Assay results as given in US20020160955A1 (published 2002).

T1: human IGFBP-1 (human, UniProt P08833 26-259)
T1 construct: secreted recombinant protein purified from conditioned medium
T1 sequence (looked up): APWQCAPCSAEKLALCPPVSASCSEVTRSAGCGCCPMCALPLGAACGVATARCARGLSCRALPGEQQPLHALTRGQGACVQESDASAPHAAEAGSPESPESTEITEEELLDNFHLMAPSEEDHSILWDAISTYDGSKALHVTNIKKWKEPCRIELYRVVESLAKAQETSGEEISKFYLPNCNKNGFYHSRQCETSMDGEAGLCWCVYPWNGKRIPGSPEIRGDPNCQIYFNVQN


Experiments:
human IGFBP-1 = biological target: T1, human IGFBP-1; experiment: competitive phage ELISA
Procedure: (§1) E. coli cells (XL1-Blue, Stratagene) freshly transformed with phagemid vector were grown overnight in 5 mL 2YT medium (Sambrook et al, supra) in the presence of M13-VCS helper phage (Stratagene). Phage particles were harvested and resuspended in PBS buffer as described in Lowman, H. B., “Phage Display of Peptide Libraries on Protein Scaffolds,” in Cabilly, S. (ed.), Combinatorial Peptide Library Protocols (Humana Press Inc.: Totowa, N.J., 1998), pp. 249-264. Then phage concentrations were normalized to yield a maximal ELISA signal of 0.2-0.4 for each mutant (Lowman, in Cabilly, S. (ed.), supra). Threefold serial dilutions of soluble competitor were prepared on non-absorbent microtiter plates (Nunc, F, 96 wells) with binding buffer (0.5% TWEEN™ 20/PBS) containing phage at the previously-determined concentrations. […] After blocking, the plates containing immobilized target were washed with 0.05% TWEEN™/PBS buffer and subsequently incubated with 80 μl/well of the premixed phage-competitor solutions for 1 hour at room temperature. After washing, bound phage was detected with 80 μl/well of a solution containing a primary rabbit anti-phage polyclonal antibody and a secondary goat anti-rabbit monoclonal antibody-horseradish peroxidase conjugate in 0.5% TWEEN 20™/PBS. o-Phenylenediamine (Sigma) and tetramethylbenzidine (Kirkegaard and Perry) were used as chromogenic substrates, resulting in product detection at 492 and 450 nm, respectively. IC₅₀ values were determined by fitting the binding data to a generic saturation curve (Lowman, in Cabilly, S. (ed.), supra). […] Numbers in Table I represent mean +standard deviation of individually assessed IC₅₀ values.

[1] = biological target: T2, recombinant human IGFBP-3 (human, UniProt P17936 28-291); experiment: competitive phage ELISA: soluble IGFBP-3 against IGFBP-3-coated wells
T2 construct: secreted recombinant protein purified from conditioned medium
T2 sequence (P17936 28-291 limits assumed): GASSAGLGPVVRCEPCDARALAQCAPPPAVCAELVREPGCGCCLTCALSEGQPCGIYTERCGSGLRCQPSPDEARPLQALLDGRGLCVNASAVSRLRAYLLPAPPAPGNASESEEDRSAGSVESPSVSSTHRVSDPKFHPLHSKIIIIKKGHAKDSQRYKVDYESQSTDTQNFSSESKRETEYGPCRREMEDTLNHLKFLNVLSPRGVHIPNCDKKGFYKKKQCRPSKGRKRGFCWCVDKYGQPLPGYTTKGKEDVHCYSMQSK
Procedure: The plates were then blocked with 0.5% TWEEN 20™/PBS (also used as binding buffer) for 2 hours at room temperature (proteinaceous blocking agents like bovine serum albumin were avoided to prevent potential IGF or IGFBP contamination). E. coli cells (XL1-Blue, Stratagene) freshly transformed with phagemid vector were grown overnight in 5 mL 2YT medium (Sambrook et al, supra) in the presence of M13-VCS helper phage (Stratagene). Phage particles were harvested and resuspended in PBS buffer as described in Lowman, H. B., “Phage Display of Peptide Libraries on Protein Scaffolds,” in Cabilly, S. (ed.), Combinatorial Peptide Library Protocols (Humana Press Inc.: Totowa, N.J., 1998), pp. 249-264. Then phage concentrations were normalized to yield a maximal ELISA signal of 0.2-0.4 for each mutant (Lowman, in Cabilly, S. (ed.), supra). Threefold serial dilutions of soluble competitor were prepared on non-absorbent microtiter plates (Nunc, F, 96 wells) with binding buffer (0.5% TWEEN™ 20/PBS) containing phage at the previously-determined concentrations.

[2] = biological target: T2, recombinant human IGFBP-3; experiment: competitive phage ELISA
Procedure: as §1

Binder	binding result (human IGFBP-1)	binding result [2]	also measured
IGF-I D12A (G1S-A70V background) displayed on phage (ligand, not shown: large carriers, monovalent M13 phage display) SPETLCGAELVAALQFVCGDRGFYFNKPTGYGSSSRRAPQTGIVDECCFRSCDLRRLEMYCAPLKPAKSV	binds	–	–
IGF-I F49A (G1S-A70V background) displayed on phage (ligand, not shown: large carriers; small tags and cut ends, monovalent M13 phage display; also called IGF-F49A phage) SPETLCGAELVDALQFVCGDRGFYFNKPTGYGSSSRRAPQTGIVDECCARSCDLRRLEMYCAPLKPAKSV	–	–	binding result [1]: binds
IGF-I T41A (G1S-A70V background) displayed on phage (ligand, not shown: large carriers, monovalent M13 phage display) SPETLCGAELVDALQFVCGDRGFYFNKPTGYGSSSRRAPQAGIVDECCFRSCDLRRLEMYCAPLKPAKSV	–	binds	–
IGF-I D45A (G1S-A70V background) displayed on phage (ligand, not shown: large carriers, monovalent M13 phage display) SPETLCGAELVDALQFVCGDRGFYFNKPTGYGSSSRRAPQTGIVAECCFRSCDLRRLEMYCAPLKPAKSV	binds	–	–
IGF-I S35A (G1S-A70V background) displayed on phage (ligand, not shown: large carriers, monovalent M13 phage display) SPETLCGAELVDALQFVCGDRGFYFNKPTGYGSSARRAPQTGIVDECCFRSCDLRRLEMYCAPLKPAKSV	–	binds	–
